Laboratory results published in paper PMC7878818.
Values belong to the substance of their own block, whether it stands above or below them.

Columns and labels:
[1] = target: Spindlin1/C11orf84 complex (human) (UniProt Q9BUA3); assay: ITC; 25 °C, MicroCal ITC200; 20 mM HEPES pH 7.5, 150 mM NaCl; 0.8 mM H3 peptide injected into 50 μM protein or complex in the sample cell
[2] = target: Spindlin1 W72A/C11orf84 complex (human) (UniProt Q9Y657); assay: ITC; 25 °C, MicroCal ITC200; 20 mM HEPES pH 7.5, 150 mM NaCl; 50 μM Spindlin1 or Spindlin1/C11orf84 complex in the cell, 0.8 mM peptide injected
Target sequence in this assay (Q9Y657 50-262 W72A, chain 1 of 2): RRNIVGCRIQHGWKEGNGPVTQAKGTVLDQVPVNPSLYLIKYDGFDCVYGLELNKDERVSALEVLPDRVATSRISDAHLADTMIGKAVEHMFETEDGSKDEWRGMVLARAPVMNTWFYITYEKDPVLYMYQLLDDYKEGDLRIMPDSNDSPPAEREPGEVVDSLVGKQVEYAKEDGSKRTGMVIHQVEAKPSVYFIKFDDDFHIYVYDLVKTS
Target sequence in this assay (Q9BUA3 whole entry, chain 2 of 2, further chain): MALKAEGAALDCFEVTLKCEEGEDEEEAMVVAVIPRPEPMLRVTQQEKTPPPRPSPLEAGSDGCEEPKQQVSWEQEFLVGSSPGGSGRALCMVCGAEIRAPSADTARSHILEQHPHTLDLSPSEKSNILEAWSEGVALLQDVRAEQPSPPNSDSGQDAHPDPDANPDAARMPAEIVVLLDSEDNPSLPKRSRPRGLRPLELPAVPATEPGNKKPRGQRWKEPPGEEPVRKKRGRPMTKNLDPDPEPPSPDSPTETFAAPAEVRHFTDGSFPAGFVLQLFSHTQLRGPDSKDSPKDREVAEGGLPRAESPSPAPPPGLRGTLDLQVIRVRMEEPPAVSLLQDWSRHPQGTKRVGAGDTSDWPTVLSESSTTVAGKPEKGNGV

[3] = target: Spindlin1 Y91A/C11orf84 complex (human) (UniProt Q9Y657); assay: as above
Target sequence in this assay (Q9Y657 50-262 Y91A, chain 1 of 2): as the sequence (Q9Y657 50-262 W72A, chain 1 of 2) above, with A23W, Y42A counted along it
Target sequence in this assay (Q9BUA3 whole entry, chain 2 of 2, further chain): as the sequence (Q9BUA3 whole entry, chain 2 of 2, further chain) above

[4] = target: Spindlin1 F141A/C11orf84 complex (human) (UniProt Q9Y657); assay: as above
Target sequence in this assay (Q9Y657 50-262 F141A, chain 1 of 2): as the sequence (Q9Y657 50-262 W72A, chain 1 of 2) above, with A23W, F92A counted along it
Target sequence in this assay (Q9BUA3 whole entry, chain 2 of 2, further chain): as the sequence (Q9BUA3 whole entry, chain 2 of 2, further chain) above

[5] = target: Spindlin1/C11orf84 complex (human) (UniProt Q9Y657); assay: as above
[6] = target: Spindlin1 W62A/W72A/C11orf84 complex (human) (UniProt Q9Y657); assay: as above
Target sequence in this assay (Q9Y657 50-262 W62A/W72A, chain 1 of 2): as the sequence (Q9Y657 50-262 W72A, chain 1 of 2) above, with W13A counted along it
Target sequence in this assay (Q9BUA3 whole entry, chain 2 of 2, further chain): as the sequence (Q9BUA3 whole entry, chain 2 of 2, further chain) above

[7] = target: Spindlin1 (aa: 50–262) (human) (UniProt Q9Y657); assay: as above
[8] = target: Spindlin1 Y98A/C11orf84 complex (human) (UniProt Q9Y657); assay: as above
Target sequence in this assay (Q9Y657 50-262 Y98A, chain 1 of 2): as the sequence (Q9Y657 50-262 W72A, chain 1 of 2) above, with A23W, Y49A counted along it
Target sequence in this assay (Q9BUA3 whole entry, chain 2 of 2, further chain): as the sequence (Q9BUA3 whole entry, chain 2 of 2, further chain) above

[9] = target: Spindlin1 W62A/C11orf84 complex (human) (UniProt Q9Y657); assay: as above
Target sequence in this assay (Q9Y657 50-262 W62A, chain 1 of 2): as the sequence (Q9Y657 50-262 W72A, chain 1 of 2) above, with W13A, A23W counted along it
Target sequence in this assay (Q9BUA3 whole entry, chain 2 of 2, further chain): as the sequence (Q9BUA3 whole entry, chain 2 of 2, further chain) above

[10] = target: Spindlin1 W72A/C11orf84 complex (human) (UniProt Q9Y657); assay: ITC; 25 °C, MicroCal ITC200; 20 mM HEPES pH 7.5, 150 mM NaCl; 0.8 mM H3 peptide injected into 50 μM protein or complex in the sample cell
[11] = target: Spindlin1 Y91A/C11orf84 complex (human) (UniProt Q9Y657); assay: as above
[12] = target: Spindlin1 F141A/C11orf84 complex (human) (UniProt Q9Y657); assay: as above
[13] = target: Spindlin1 W62A/W72A/C11orf84 complex (human) (UniProt Q9Y657); assay: as above
[14] = target: Spindlin1 D173A/C11orf84 complex (human) (UniProt Q9Y657); assay: as above
[15] = target: Spindlin1 Y98A/C11orf84 complex (human) (UniProt Q9Y657); assay: as above
[16] = target: Spindlin1 W62A/C11orf84 complex (human) (UniProt Q9Y657); assay: as above

Chain of Spindlin1 (aa: 50–262) (human) (Q9Y657 50-262): as the sequence (Q9Y657 50-262 W72A, chain 1 of 2) above, with A23W counted along it

Kd [1]: 2880 nM | stoichiometry N [1]: 1.02
Substance: H3K9me3 peptide, H3 (1-12)

Kd [1]: 42 nM | stoichiometry N [1]: 1.01
Substance: H3K4me3K9me2 peptide, H3 (1-12)

Second part, the substance before the results:

Substance: H3K4me3 peptide, H3 (1-12)
Kd [1]: 213 nM | stoichiometry N [1]: 1.01

Substance: H3K4me3K9me3 peptide
fold reduction in binding affinity against wild type [2]: 3 fold | fold reduction in binding affinity against wild type [3]: 3 fold | fold reduction in binding affinity against wild type [4]: 40 fold | Kd [5]: 20 nM | fold reduction in binding affinity against wild type [6]: 10 fold | Kd [7]: 46 nM | fold reduction in binding affinity against wild type [8]: 3 fold | fold reduction in binding affinity against wild type [9]: 3 fold

Substance: H3K4me3R8me2a peptide, H3 (1-12)
Kd [1]: 82 nM | stoichiometry N [1]: 1.04

Substance: H3K4me3K9me3 peptide, H3 (1-12)
stoichiometry N [10]: 1.07 | stoichiometry N [11]: 1.07 | stoichiometry N [12]: 1.03 | stoichiometry N [13]: 1 | stoichiometry N [1]: 1.02 | stoichiometry N [14]: 1.04 | stoichiometry N [15]: 1.07 | stoichiometry N [16]: 1.06
